Values belong to the substance of their own block, whether it stands above or below them.
Legend:
[1] = target: hSIRPβ1 transcript variant 3/hSIRPβL (human) (UniProt Q5TFQ8); experiment: CELISA, CHO-K1 transfectants
[2] = target: human SIRPα variant 1 (human) (UniProt P78324); experiment: CELISA, CHO-K1 transfectants
[3] = target: human SIRPα variant 2 (human) (UniProt P78324); experiment: CELISA, CHO-K1 transfectants
human SIRPβ1 (human) [4] = target: human SIRPβ1 (human) (UniProt O00241); experiment: CELISA, CHO-K1 transfectants
human SIRPγ (human) [5] = target: human SIRPγ (human) (UniProt Q9P1W8); experiment: CELISA, CHO-K1 transfectants
hSIRPαV1(P74A) (human) [6] = target: hSIRPαV1(P74A) (human) (UniProt P78324); experiment: CELISA, CHO-K1 transfectants
[7] = target: human SIRPα variant 1 (human) (UniProt P78324); experiment: CELISA, CHO-K1 transfectants; remark: listed apart in the source
human SIRPβ1 (human) [8] = target: human SIRPβ1 (human) (UniProt O00241); experiment: CELISA, CHO-K1 transfectants; remark: listed apart in the source
[9] = target: human SIRPα variant 1 (human) (UniProt P78324); experiment: CELISA, CHO-K1 transfectants; n = 1
[10] = target: human SIRPα variant 2 (human) (UniProt P78324); experiment: CELISA, CHO-K1 transfectants; n = 1
human SIRPβ1 (human) [11] = target: human SIRPβ1 (human) (UniProt O00241); experiment: CELISA, CHO-K1 transfectants; n = 1
human SIRPγ (human) [12] = target: human SIRPγ (human) (UniProt Q9P1W8); experiment: CELISA, CHO-K1 transfectants; n = 1
hSIRPαV1(P74A) (human) [13] = target: hSIRPαV1(P74A) (human) (UniProt P78324); experiment: CELISA, CHO-K1 transfectants, point mutant study
[14] = target: human SIRPα variant 1 (human) (UniProt P78324); experiment: CELISA, CHO-K1 transfectants, point mutant study
human SIRPβ1 (human) [15] = target: human SIRPβ1 (human) (UniProt O00241); experiment: CELISA, CHO-K1 transfectants, point mutant study
hSIRPαV1(P74A) (human) [16] = target: hSIRPαV1(P74A) (human) (UniProt P78324); experiment: CELISA, CHO-K1 transfectants, point mutant study; remark: listed apart in the source
[17] = target: human SIRPα variant 1 (human) (UniProt P78324); experiment: CELISA, CHO-K1 transfectants, point mutant study; remark: listed apart in the source
hSIRPα-VαC1αC2β (human) = hSIRPα-VαC1αC2β (human) (UniProt P78324); experiment: CELISA, CHO-K1 transfectants, domain exchange study
hSIRPα-VαC1βC2α (human) = hSIRPα-VαC1βC2α (human) (UniProt P78324); experiment: as above
hSIRPα-VβC1αC2α (human) = hSIRPα-VβC1αC2α (human) (UniProt P78324); experiment: as above
[18] = target: human SIRPα variant 1 (human) (UniProt P78324); experiment: as above
[19] = target: human SIRPα variant 2 (human) (UniProt P78324); experiment: as above
human SIRPβ1 (human) [20] = target: human SIRPβ1 (human) (UniProt O00241); experiment: as above
hSIRP-VβC1βC2γ (human) = hSIRP-VβC1βC2γ (human) (UniProt O00241); experiment: as above
hSIRP-VβC1γC2β (human) = hSIRP-VβC1γC2β (human) (UniProt O00241); experiment: as above
hSIRP-VγC1βC2β (human) = hSIRP-VγC1βC2β (human) (UniProt O00241); experiment: as above
[21] = target: human SIRPα variant 1 (human) (UniProt P78324); experiment: as above; remark: listed apart in the source
[22] = target: human SIRPα variant 2 (human) (UniProt P78324); experiment: as above; remark: listed apart in the source
human SIRPβ1 (human) [23] = target: human SIRPβ1 (human) (UniProt O00241); experiment: as above; remark: listed apart in the source
[24] = target: hSIRPαV3 (NA07056_V3) (human) (UniProt P78324); experiment: CELISA, CHO-K1 transfectants; average of two experiments
[25] = target: hSIRPαV4 (NA11832_V4) (human) (UniProt P78324); experiment: as above
[26] = target: hSIRPαV5 (NA18502_V5) (human) (UniProt P78324); experiment: as above
[27] = target: hSIRPαV6 (NA18507_V6) (human) (UniProt P78324); experiment: as above
[28] = target: hSIRPαV8 (NA18570_V8) (human) (UniProt P78324); experiment: as above
[29] = target: hSIRPαV9 (NA18943_V9) (human) (UniProt P78324); experiment: as above
[30] = target: human SIRPα variant 1 (human) (UniProt P78324); experiment: as above
[31] = target: human SIRPα variant 2 (human) (UniProt P78324); experiment: as above
[32] = target: human SIRPα variant 1 (human) (UniProt P78324); experiment: CELISA, CHO-K1 transfectants; extrapolated
[33] = target: human SIRPα variant 2 (human) (UniProt P78324); experiment: CELISA, CHO-K1 transfectants; extrapolated
[34] = target: hSIRPβ1 transcript variant 3/hSIRPβL (human) (UniProt Q5TFQ8); experiment: CELISA, CHO-K1 transfectants; extrapolated
human SIRPβ1 (human) [35] = target: human SIRPβ1 (human) (UniProt O00241); experiment: CELISA, CHO-K1 transfectants; extrapolated
human SIRPγ (human) [36] = target: human SIRPγ (human) (UniProt Q9P1W8); experiment: CELISA, CHO-K1 transfectants; extrapolated

Chain of hSIRPβ1 transcript variant 3/hSIRPβL (human) (Q5TFQ8 30-398 limits assumed, change not shown): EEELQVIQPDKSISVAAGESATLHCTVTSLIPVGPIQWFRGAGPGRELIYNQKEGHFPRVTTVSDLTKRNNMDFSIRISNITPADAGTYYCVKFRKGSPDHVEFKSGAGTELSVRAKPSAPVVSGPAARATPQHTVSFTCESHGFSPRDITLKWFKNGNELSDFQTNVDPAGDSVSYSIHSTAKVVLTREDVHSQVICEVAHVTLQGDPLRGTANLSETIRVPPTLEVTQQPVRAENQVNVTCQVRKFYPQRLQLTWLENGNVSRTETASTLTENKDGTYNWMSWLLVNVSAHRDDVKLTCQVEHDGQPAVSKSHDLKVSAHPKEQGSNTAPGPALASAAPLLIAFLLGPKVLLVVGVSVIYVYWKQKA
Chain of hSIRPαV1(P74A) (human) (P78324 31-504 P74A limits assumed): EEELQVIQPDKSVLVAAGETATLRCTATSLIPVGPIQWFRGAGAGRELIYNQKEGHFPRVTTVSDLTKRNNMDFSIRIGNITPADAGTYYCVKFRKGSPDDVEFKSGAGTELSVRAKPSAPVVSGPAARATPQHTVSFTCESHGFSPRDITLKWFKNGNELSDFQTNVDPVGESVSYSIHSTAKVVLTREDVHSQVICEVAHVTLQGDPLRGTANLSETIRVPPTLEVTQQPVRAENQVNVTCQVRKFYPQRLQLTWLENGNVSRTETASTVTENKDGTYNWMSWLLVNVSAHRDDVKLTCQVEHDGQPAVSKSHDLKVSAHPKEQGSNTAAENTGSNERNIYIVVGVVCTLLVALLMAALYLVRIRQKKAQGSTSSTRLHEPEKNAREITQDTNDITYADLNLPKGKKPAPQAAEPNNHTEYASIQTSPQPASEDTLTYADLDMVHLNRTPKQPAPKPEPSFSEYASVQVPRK
Chain of human SIRPγ (human) (Q9P1W8 29-387 limits assumed): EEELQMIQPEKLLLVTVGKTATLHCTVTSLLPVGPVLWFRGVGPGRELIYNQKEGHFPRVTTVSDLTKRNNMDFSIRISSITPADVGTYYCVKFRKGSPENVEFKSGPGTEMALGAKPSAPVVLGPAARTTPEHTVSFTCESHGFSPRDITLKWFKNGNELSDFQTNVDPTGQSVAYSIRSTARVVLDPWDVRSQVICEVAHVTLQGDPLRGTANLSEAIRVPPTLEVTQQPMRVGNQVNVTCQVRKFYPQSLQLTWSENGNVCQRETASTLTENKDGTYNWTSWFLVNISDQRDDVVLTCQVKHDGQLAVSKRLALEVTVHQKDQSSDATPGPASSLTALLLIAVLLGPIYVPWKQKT
Chain of human SIRPα variant 1 (human) (P78324 31-504 limits assumed, change not shown): as the sequence (P78324 31-504 P74A limits assumed) above, with A44P counted along it
Chain of human SIRPβ1 (human) (O00241 30-398 limits assumed): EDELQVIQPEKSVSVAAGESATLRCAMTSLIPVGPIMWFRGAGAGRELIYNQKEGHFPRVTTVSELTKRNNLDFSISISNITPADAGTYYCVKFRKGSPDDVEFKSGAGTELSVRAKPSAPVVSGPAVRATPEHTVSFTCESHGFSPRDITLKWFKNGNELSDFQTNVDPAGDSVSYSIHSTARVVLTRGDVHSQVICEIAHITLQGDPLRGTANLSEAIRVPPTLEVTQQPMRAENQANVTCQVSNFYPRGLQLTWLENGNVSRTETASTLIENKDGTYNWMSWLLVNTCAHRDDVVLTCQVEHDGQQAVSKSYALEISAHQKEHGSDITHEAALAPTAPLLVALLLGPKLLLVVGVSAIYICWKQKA
Chain of human SIRPα variant 2 (human) (P78324 other isoform, or with tags, fused parts or gaps mutant limits assumed): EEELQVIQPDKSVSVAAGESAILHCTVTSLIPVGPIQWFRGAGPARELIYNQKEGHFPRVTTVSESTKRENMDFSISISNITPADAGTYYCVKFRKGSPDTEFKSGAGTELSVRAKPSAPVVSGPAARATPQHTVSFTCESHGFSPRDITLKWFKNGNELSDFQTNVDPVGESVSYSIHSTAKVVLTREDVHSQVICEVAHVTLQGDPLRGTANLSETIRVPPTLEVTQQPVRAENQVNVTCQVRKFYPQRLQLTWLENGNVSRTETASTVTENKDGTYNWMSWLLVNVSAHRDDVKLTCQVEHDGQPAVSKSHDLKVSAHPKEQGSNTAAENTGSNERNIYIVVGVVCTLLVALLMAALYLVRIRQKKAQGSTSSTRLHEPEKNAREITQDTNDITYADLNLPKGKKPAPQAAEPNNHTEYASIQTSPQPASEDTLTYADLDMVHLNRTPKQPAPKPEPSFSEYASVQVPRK
Chain of hSIRPαV4 (NA11832_V4) (human) (P78324 other isoform, or with tags, fused parts or gaps limits assumed): as the sequence (P78324 31-504 P74A limits assumed) above, with E3G, L14S, T20S, T22I, R24H, A44P counted along it
Chain of hSIRP-VγC1βC2β (human) (O00241 other isoform, or with tags, fused parts or gaps limits assumed): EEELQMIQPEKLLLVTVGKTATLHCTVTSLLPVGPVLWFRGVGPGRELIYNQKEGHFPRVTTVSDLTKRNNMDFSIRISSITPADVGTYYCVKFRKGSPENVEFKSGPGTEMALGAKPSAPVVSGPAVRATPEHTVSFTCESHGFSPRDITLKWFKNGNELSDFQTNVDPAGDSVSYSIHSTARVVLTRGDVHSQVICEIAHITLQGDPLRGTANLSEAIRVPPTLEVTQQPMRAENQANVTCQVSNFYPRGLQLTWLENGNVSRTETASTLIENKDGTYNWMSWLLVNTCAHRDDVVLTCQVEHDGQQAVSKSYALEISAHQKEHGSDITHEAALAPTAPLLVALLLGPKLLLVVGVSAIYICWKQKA
Chain of hSIRPα-VαC1βC2α (human) (P78324 other isoform, or with tags, fused parts or gaps limits assumed): as the sequence (P78324 31-504 P74A limits assumed) above, with A44P, A128V, Q133E, V171A, E173D, K184R, E190G, V200I, V203I counted along it
Chain of hSIRP-VβC1γC2β (human) (O00241 other isoform, or with tags, fused parts or gaps limits assumed): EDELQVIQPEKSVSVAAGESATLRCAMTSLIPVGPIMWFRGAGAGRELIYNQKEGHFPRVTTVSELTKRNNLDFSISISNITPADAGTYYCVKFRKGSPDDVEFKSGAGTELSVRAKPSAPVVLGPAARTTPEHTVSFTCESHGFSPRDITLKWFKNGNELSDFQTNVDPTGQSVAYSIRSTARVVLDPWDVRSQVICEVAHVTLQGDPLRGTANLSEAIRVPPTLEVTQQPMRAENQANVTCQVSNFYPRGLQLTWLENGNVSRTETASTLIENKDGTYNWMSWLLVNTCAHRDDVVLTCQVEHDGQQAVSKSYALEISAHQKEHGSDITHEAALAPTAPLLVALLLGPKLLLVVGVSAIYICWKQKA
Chain of hSIRPα-VαC1αC2β (human) (P78324 other isoform, or with tags, fused parts or gaps limits assumed): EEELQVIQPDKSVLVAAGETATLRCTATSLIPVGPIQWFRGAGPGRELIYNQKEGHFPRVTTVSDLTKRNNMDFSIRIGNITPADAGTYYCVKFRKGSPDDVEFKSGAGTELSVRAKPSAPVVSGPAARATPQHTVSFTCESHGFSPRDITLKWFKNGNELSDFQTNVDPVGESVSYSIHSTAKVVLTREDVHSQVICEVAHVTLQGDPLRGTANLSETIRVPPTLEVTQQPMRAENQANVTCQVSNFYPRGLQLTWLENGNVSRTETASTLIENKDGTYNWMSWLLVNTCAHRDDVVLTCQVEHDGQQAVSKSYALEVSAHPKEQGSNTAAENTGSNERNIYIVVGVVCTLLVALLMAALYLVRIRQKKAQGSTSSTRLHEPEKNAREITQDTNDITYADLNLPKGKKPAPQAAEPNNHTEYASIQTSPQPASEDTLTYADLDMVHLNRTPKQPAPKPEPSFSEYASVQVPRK

Substance: anti-hSIRPα (clone SE5A5) (antibody)
EC50 [1]: 0.122 nM
EC50 [2]: 0.372 nM
EC50 [3]: 0.186 nM
EC50 (human SIRPβ1 (human) [4]): 0.185 nM
EC50 (human SIRPγ (human) [5]): 0.2 nM
EC50 (hSIRPαV1(P74A) (human) [6]): 0.207 nM
EC50 [7]: 0.156 nM
EC50 (human SIRPβ1 (human) [8]): 0.105 nM
EC50 [9]: 0.304 nM
EC50 [10]: 0.2 nM
EC50 (human SIRPβ1 (human) [11]): 0.192 nM
EC50 (human SIRPγ (human) [12]): 0.168 nM
EC50 (hSIRPαV1(P74A) (human) [13]): 0.15 nM
EC50 [14]: 0.164 nM
EC50 (human SIRPβ1 (human) [15]): 0.156 nM
EC50 (hSIRPαV1(P74A) (human) [16]): 0.149 nM
EC50 [17]: 0.163 nM
EC50 (hSIRPα-VαC1αC2β (human)): 0.127 nM
EC50 (hSIRPα-VαC1βC2α (human)): 0.135 nM
EC50 (hSIRPα-VβC1αC2α (human)): 0.121 nM
EC50 [18]: 0.117 nM
EC50 [19]: 0.084 nM
EC50 (human SIRPβ1 (human) [20]): 0.18 nM
EC50 (hSIRP-VβC1βC2γ (human)): 0.231 nM
EC50 (hSIRP-VβC1γC2β (human)): 0.309 nM
EC50 (hSIRP-VγC1βC2β (human)): 0.287 nM
EC50 [21]: 0.35 nM
EC50 [22]: 0.224 nM
EC50 (human SIRPβ1 (human) [23]): 0.249 nM
EC50 [24]: 0.226 nM
EC50 [25]: 0.256 nM
EC50 [26]: 0.276 nM
EC50 [27]: 0.098 nM
EC50 [28]: 0.3 nM
EC50 [29]: 0.26 nM
EC50 [30]: 0.327 nM
EC50 [31]: 0.2 nM

Substance: anti-hSIRPα (clone D6I3M) (antibody)
EC50 (hSIRPαV1(P74A) (human) [6]): > 122 nM
EC50 [7]: > 6.41 nM
EC50 [32]: 18.7 nM
EC50 [33]: 8.76 nM

Substance: anti-hSIRPα (clone REA144) (antibody)
EC50 (hSIRPαV1(P74A) (human) [6]): > 4.79 nM
EC50 [7]: > 3.66 nM
EC50 (human SIRPβ1 (human) [8]): > 3.08 nM
EC50 [34]: 2.15 nM
EC50 [32]: 5.24 nM
EC50 [33]: 3.27 nM
EC50 (human SIRPβ1 (human) [35]): 4.53 nM
EC50 (human SIRPγ (human) [36]): 3.21 nM

Substance: anti-hSIRPα (clone EPR16264) (antibody)
EC50 (hSIRPαV1(P74A) (human) [6]): > 2 nM
EC50 [7]: > 1.17 nM
EC50 [33]: 2.45 nM

The remaining lines, values ahead:

EC50 (human SIRPγ (human) [12]): 0.265 nM
Substance: anti-hSIRPγ (clone LSB2.20) (antibody)

EC50 [3]: 0.3 nM
EC50 (human SIRPγ (human) [5]): 1.52 nM
EC50 (hSIRPαV1(P74A) (human) [6]): > 6.14 nM
EC50 [7]: > 7.01 nM
EC50 [34]: 26.8 nM
EC50 [32]: 1.27 nM
Substance: anti-hSIRPα (clone SE7C2) (antibody)

Reference: US20180312587A1
